US20230272055A1 (Incyte, published 2023)

T1: human Type 1 mutCALR on Ba/F3 cells expressing MPL and Type 1 mutCALR (human)
T1 chain: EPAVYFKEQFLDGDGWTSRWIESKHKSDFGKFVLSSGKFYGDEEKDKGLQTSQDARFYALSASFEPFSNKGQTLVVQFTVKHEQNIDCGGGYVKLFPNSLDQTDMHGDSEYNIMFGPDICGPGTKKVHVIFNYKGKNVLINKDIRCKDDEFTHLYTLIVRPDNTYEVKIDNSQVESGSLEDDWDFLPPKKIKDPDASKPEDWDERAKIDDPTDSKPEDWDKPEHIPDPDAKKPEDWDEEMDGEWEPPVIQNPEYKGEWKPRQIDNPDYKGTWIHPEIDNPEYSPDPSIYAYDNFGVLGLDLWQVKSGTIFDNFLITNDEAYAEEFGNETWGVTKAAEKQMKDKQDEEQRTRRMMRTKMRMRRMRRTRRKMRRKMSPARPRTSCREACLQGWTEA

T2: human mutCALR on BaF3 cells stably expressing human MPL and human mutCALR (MPL-mutCALR cells) (human)
T2 construct: also called mutant calreticulin
T2 chain: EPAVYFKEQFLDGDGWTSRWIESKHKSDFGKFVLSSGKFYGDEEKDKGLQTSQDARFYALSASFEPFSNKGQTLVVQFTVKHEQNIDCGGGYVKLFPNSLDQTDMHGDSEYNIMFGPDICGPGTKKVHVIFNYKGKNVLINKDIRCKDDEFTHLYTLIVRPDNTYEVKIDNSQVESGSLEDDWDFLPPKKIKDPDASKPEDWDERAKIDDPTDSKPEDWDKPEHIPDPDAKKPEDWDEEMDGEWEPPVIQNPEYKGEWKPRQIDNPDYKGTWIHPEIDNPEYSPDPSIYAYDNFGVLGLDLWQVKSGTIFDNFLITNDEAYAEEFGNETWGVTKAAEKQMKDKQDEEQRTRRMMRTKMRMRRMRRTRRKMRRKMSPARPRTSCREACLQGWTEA


Legend:
[1] = target: T1, human Type 1 mutCALR on Ba/F3 cells …; test: cell-based or functional assay
[2] = target: T2, human mutCALR on BaF3 cells stably …; test: flow cytometry, BaF3 MPL-mutCALR cells
Method: On the day of the assay, cells were washed and resuspended in assay buffer. Approximately 200,000 cells/well were added to 96-well plates and stained with the indicated concentration of antibodies for 30 minutes on ice. Cells were then washed and stained with goat anti-human secondary conjugated to R-phycoerythrin (R-PE) (Jackson Immuno Research Laboratories) for 30 minutes on ice. The cells were then washed and analyzed by flow cytometry.

Row | Binder | IC50, inhibition of pSTAT5 [1] [µg/mL] | EC50 [2] [µg/mL] | MPL-mutCALR AUC [2]
1 | anti-mutCALR antibody clone 38 (antibody, human IgG1, kappa, V domains shown, human IgG1) VH: EVQPVQSGAEVKKPGSSVKVSCKASGGTFSSYAISWVRQAPGQGLEWMGLVDPEDGETIYAEKFRGRVTITADTSTDTAYMELSSLRSEDTAVYYCATEESYGPWGQGTLVTVSS VL: DIQLTQSPSSLSASVGDRVTITCQASQDISNYLNWYQQKPGKAPKLLIYDASNLETGVPSRFSGSGSGTEFTLTISSLQPEDFATYYCQQLNSYPLTFGGGTKLEIKR | 3.55 | 1.44 | 37000
2 | anti-mutCALR antibody clone 39 (antibody, human IgG1, kappa, V domains shown, human IgG1) VH: EVQLVQSGAEVKKPGSSVKVSCKASGGTFSSYAISWVRQAPGQGLEWMGLVDPEDGETIYAEKFQGRVTITADTSTDTAYMELSSLRSEDTAVYYCATEESYGPWGQGTLVTVSS VL: DIQLTQSPSSLSASVGDRVTITCQASQDISNYLDWYQQKPGKAPKLLIYDASNLETGVPSRFSGSGSGTEFTLTISSLQPEDFATYYCQQLNSYPLTFGGGTKLEIKR | 3.97 | – | 51500
3 | anti-mutCALR antibody clone 52 (antibody, human IgG1, kappa, V domains shown, human IgG1) VH: EVQLVQSGAEVKKPGASVKVSCKVSGYTLTELSMHWVRQAPGKGLEWMGLVDPEDGETIYAEKFQGRVTITADTSTDTAYMELSSPRSEDTAVYYCATTIGDDYFDYWGQGTLVTVSS VL: not shown | 0.346 | – | 65800
4 | anti-mutCALR antibody clone 37 (antibody, human IgG1, lambda, V domains shown, human IgG1) VH: QVQLVQSGAEVKKPGATVKISCKVSGYSFTDYFIHWVQQAPGKGLAWVGLVDPEDGETIYAEKFQGRVTITADTSTDTAYMELSSLRSEDTAVYYCATPGGILTDPDAFDIWGQGTMVTVSS VL: QSALTQPASVSGSPGQSITISCTGTSSDVGGYNYVSWYQQHPGKAPKLMIYDVSNRPSGVSNRFSGSKSGNTASLTISGLQAEDEADYYCSSYTSSSTFYVFGTGTKVTVLG | 0.039 | 9.64 | 80900
5 | anti-mutCALR antibody clone 33 (antibody, human IgG1, lambda, V domains shown, human IgG1) VH: QVQLVQSGAEVKKPGATVKISCKVSGYSFTDYFIHWVQQAPGKGLAWVGLVDPEDGETIYAEKFQGRVTITADTSTDTAYMELSSLRSEDTAVYYCATPGGILTDPDAFDIWGQGTMVTVSS VL: QSALTQPRSVSGSPGQSVTISCAGTGSDVGGYNHVSWYQHHPGKAPKLMIYDVNKRPSGVPDRFSGSKSGNTASLTISGLQAEDEADYYCSSYIPSSTRWVFGGGTKLTVLG | 80.4 | 0.15 | 38700
6 | anti-mutCALR antibody clone 31 (antibody, human IgG1, lambda, V domains shown, human IgG1) VH: QVQLVQSGAEVKKPGATVKISCKVSGYSFTDYFIHWVQQAPGKGLAWVGLVDPEDGETIYAEKFQGRVTITADTSTDTAYMELSSLRSEDTAVYYCATPGGILTDPDAFDIWGQGTMVTVSS VL: QSALTQPASVSGSPGQSVTISCTGTSSDVGGYNYVSWYQHHPGKAPKLMIYDVNKRPSGVPDRFSGSKSGNTASLTISGLQAEDEADYYCSSYIPSSTRWVFGGGTKLTVLG | 26.8 | 0.01 | 45700
7 | anti-mutCALR antibody clone 32 (antibody, human IgG1, lambda, V domains shown, human IgG1) VH: QVQLVQSGAEVKKPGATVKISCKVSGYSFTDYFIHWVQQAPGKGLAWVGLVDPEDGETIYAEKFQGRVTITADTSTDTAYMELSSLRSEDTAVYYCATPGGILTDPDAFDIWGQGTMVTVSS VL: QSALTQPASVSGSPGQSITISCTGTSSDVGGYNYVSWYQQHPGKAPKLMIYEVSNRPSGVSNRFSGSKSGNTASLTISGLQAEDEADYYCSSYTSSSTPYVFGTGTKVTVLG | 0.47 | 0.01 | 52500
8 | anti-mutCALR antibody clone 36 (antibody, human IgG1, lambda, V domains shown, human IgG1) VH: QVQLVQSGAEVKKPGATVKISCKVSGYSFTDYFIHWVQQAPGKGLAWVGLVDPEDGETIYAEKFQGRVTITADTSTDTAYMELSSLRSEDTAVYYCATPGGILTDPDAFDIWGQGTMVTVSS VL: QSALTQPRSVSGSPGQSVTISCAGTGSDVGGYNYVSWYQHHPGKAPKLMIYDVNKRPSGVPDRFSGSKSGNTASLTISGLQAEDEADYYCSSYTSSSTFYVFGTGTKVTVLG | 0.092 | 0.01 | 73800
9 | anti-mutCALR antibody clone 35 (antibody, human IgG1, lambda, V domains shown, human IgG1) VH: QVQLVQSGAEVKKPGATVKISCKVSGYSFTDYFIHWVQQAPGKGLAWVGLVDPEDGETIYAERFQGRVTITADTSTDTAYMELSSLRSEDTAVYYCATPGGILTDPDAFDIWGQGTMVTVSS VL: QSALTQPASVSGSPGQSITISCTGTSSDVGGYNYVSWYQQHPGKAPKLMIYEVSNRPSGVSNRFSGSKSGNTASLTISGLQAEDEADYYCSSYTSSSTPYVFGTGTKVTVLG | 0.444 | 0.02 | 62100
10 | anti-mutCALR antibody clone 29 (antibody, human IgG1, lambda, V domains shown, human IgG1) VH: EVQLVQSGAEVKKPGASVKVSCKVSGYTLTELSMQWVRQAPGKGLEWMGGFDPDDGETMYAEKFQGRLTVTEDTSTDTVYMELRSLTSEDTALYFCATSPGYDFFDYWGQGTLVTVSS VL: SYVLTQPPSVSVAPGKTARITCGGNNIGSKSVHWYQQKPGQAPVLVVYDDSDRPSGIPERFSGSNSGNTATLTISRVEAGDEADYYCQVWDSSSDLLIFGGGAKLTVLG | 0.037 | 3.19 | 77900
11 | anti-mutCALR antibody clone 30 (antibody, human IgG1, lambda, V domains shown, human IgG1) VH: EVQLVQSGAEVKKPGASVKVSCKVSGYTLTELSMQWVRQAPGKGLEWMGGFDPDDGETMYAEKFQGRLTVTEDTSTDTVYMELRSLTSEDTALYFCATSPGYDFFDYWGQGTLVTVSS VL: SYVLTQPPSVSVAPGKTATITCGGNNIGTKSVHWYQQKPGQAPVLVVYDDSDRPSGIPERFSGSNSGNTATLTINRVEAGDEADYYCQVWDSSNDLLIFGGGTKLTVLG | 0.054 | – | 63800
12 | anti-mutCALR antibody clone 53 (antibody, human IgG1, lambda, V domains shown, human IgG1) VH: QVQLVQSGAEVKKPGASVKVSCKVSGYTLTELSMHWVRQAPGKGLEWMGGFDPEDGETIYAQKFQGRVTMTEDTSTDTAYMELSSLRSEDTAVYYCATDIQGLAEFDYWGQGTLVTVSS VL: QSALTQPRSVSGSPGQSVTISCTGTNTDVGAYIDVSWYQQHPGKAPKLIIYDVSKWPSGVPDRFSGSKSGNTASLTISGLQAEDEADYYCCSYAGNHSFSFGGGTKVTVLG | 0.402 | 0.02 | 64600
13 | anti-mutCALR antibody clone 41 (antibody, human IgG1, lambda, V domains shown, human IgG1) VH: EVQLVQSGAEVKKPGASVKVSCKVSGYTLTELSMHWVRQAPGKGLEWMGLVDPEDGETIYAQKFQGRVTMTEDTSTDTAYMELSSLRSEDTAVYYCAREEWSGDGDDAFDIWGQGTMVTVSS VL: QSVLTQPPSVSAAPGQKVTISCSGSSSNIGSYSVSWYQQLPGTAPKLLIYDNNKRPSGIPDRFSGSNSGTSATLGITGLQTGDEADYYCGTWDSSLSAWVFGGGTKLTVLG | 0.364 | – | 60600
14 | anti-mutCALR antibody clone 42 (antibody, human IgG1, lambda, V domains shown, human IgG1) VH: EVQLVQSGAEVKKPGASVKVSCKVSGYTLTELSMHWVRQAPGKGLEWMGLVDPEDGETIYAQKFQGRVTMTEDTSTDTAYMELSSLRSEDTAVYYCAREEWSGDGDDAFDIWGQGTMVTVSS VL: QSVLTQPPSVSAAPGQKVTISCSGSSSNIGSYSVSWYQQLPGTAPKLLIYDDNKRPSGIPDRFSGSNSGTSATLSITGLQTGDEADYYCGTWDSSLSAWVFGGGTKLTVLG | 0.196 | – | 61300
15 | anti-mutCALR antibody clone 40 (antibody, human IgG1, lambda, V domains shown, human IgG1) VH: EVQLVQSGAEVKKPGASVKVSCKVSGYTLTESSMHWVRQAPGKGLEWMGLVDPEDGETIYAQKFQGRVTMTEDTSTDTAYMELSSLRSEDTAVYYCAREEWSGDGDDAFDIWGQGTMVTVSS VL: QSVLTQPPSVSAAPGQKVTISCSGSSSNIGSYSVSWYQQLPGTAPKLLIYDNNKRPSGIPDRFSGSNSGTSATLGITGLQTGDEADYYCGTWDSSLSAWVFGGGTKLTVLG | 0.742 | 0.07 | 52900
16 | anti-mutCALR antibody clone 6 (antibody, human IgG1, lambda, human IgG1) heavy: not shown light: QSALTQPASVSGSPGQSITISCTGTSSDVGGYNYVSWYQQHPGKAPKLMIYEVSNRPSGVSNRFSGSNSGNTATLTINRVEAGDEADYYCQVWDSSNDLLIFGGGTKLTVLGQPKAAPSVTLFPPSSEELQANKATLVCLISDFYPGAVTVAWKADSSPVKAGVETTTPSKQSNNKYAASSYLSLTPEQWKSHRSYSCQVTHEGSTVEKTVAPTECS | 0.03 | 0.3 | 58200
17 | anti-mutCALR antibody clone 11 (antibody, human IgG1, lambda, V domains shown, human IgG1) VH: EVRLVQSGAEVKKPGASVKVSCKVSGYTLTELSMQWVRQAPGKGLEWMGGFDPDDGETMYAEKFQGRLTVTEDTSTDTVYMELRSLTSEDTALYFCATSPGYDFFDYWGQGTLVTVSS VL: QSALTQPRSVSGSPGQSVTISCTGTSSDVGGYNYVSWYQQHPGKAPKLMIYDVSKRPSGVPDRFSGSNSGNTATLTINRVEAGDEADYYCQVWDSSNDLLIFGGGTKLTVLG | 0.052 | 0.05 | 69700
